The numbers were not newly measured in publication PMC3034196, which cites them from elsewhere.

The term Kd denotes the concentration at which binding is half-saturated.

In this data set the target is alkaline protease (Pseudomonas aeruginosa) (UniProt Q03023).
UniProt Q03023, sequence (Q03023 10-479): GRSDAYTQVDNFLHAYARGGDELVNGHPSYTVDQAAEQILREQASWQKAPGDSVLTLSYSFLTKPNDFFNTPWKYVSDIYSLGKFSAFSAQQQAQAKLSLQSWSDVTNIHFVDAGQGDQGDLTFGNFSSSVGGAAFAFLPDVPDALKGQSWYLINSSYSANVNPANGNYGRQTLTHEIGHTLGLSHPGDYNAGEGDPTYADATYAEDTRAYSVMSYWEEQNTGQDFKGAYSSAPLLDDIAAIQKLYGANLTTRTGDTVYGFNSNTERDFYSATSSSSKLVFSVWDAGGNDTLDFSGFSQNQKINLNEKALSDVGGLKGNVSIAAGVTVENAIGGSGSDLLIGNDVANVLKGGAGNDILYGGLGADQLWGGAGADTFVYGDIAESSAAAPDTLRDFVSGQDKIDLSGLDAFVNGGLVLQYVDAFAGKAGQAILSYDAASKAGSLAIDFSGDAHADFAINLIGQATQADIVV

With “APRin (alkaline protease inhibitor) (from UniProt Q03026)”, the Kd is 4 pM.
